Stoichiometry N and Kd data for three substances are collected here from article PMC9304148.

The stoichiometry N is the number of molecules, sites or subunits per partner or assembly. The Kd is the equilibrium constant for the complex coming apart.

Data set [1] has as its target CarHCfe (Cystobacter ferrugineus CarH), purified (Cystobacter ferrugineus). Put plainly: SEC; analytical size exclusion, Superdex200 HR 10/30; 100 ul of 50-100 uM pure apoprotein alone, in the dark; dimer by apparent Mr. A general note: Size exclusion chromatography separates by hydrodynamic size, large species first.
The target is the same in data set [2]. Put plainly: SEC; analytical size exclusion, Superdex200 HR 10/30; 100 ul of 50-100 uM protein after 15-min incubation with five-fold molar excess of AdoCbl, in the dark; dimer by apparent Mr.
For data set [3], the target named is CarHCfu (Cystobacter fuscus CarH), purified (Cystobacter fuscus). The data set is described as follows: SEC; analytical size exclusion, Superdex200 HR 10/30; 100 ul of 50-100 uM pure apoprotein alone, in the dark; dimer by apparent Mr.
For data set [4] the target is unchanged. The data set is described as follows: SEC; analytical size exclusion, Superdex200 HR 10/30; 100 ul of 50-100 uM protein after 15-min incubation with five-fold molar excess of AdoCbl, in the dark; dimer by apparent Mr.
Data set [5] relates to CarHCfu (Cystobacter fuscus DSM 2262 (strain as in the genome table)). The data set is described as follows: EMSA. Conditions: EMSA: 0.1 M KCl, 10 mM MgCl2, 25 mM Tris-HCl pH 8, 1 mM DTT, 10% glycerol, 200 ng/ul BSA, 1 ug salmon sperm DNA, 1.2 nM probe, AdoCbl 5-fold over protein, 37 °C. In general terms: A gel shift assay detects complexes by their altered migration in electrophoresis.

For the substance “CarHCfe (Cystobacter ferrugineus CarH), purified (natural protein)”, the stoichiometry N in data set [1] and in data set [2] was 2 throughout.
In the case of “CarHCfu (Cystobacter fuscus CarH), purified (natural protein)”, the stoichiometry N in data set [3] and in data set [4] was 2 each time.
In data set [5], Pcrt Cfu 170 bp displayed a Kd of 34.7 nM.
